Experimental data taken from patent US20140178384A1 (INSTITUT PASTEUR, published 2014).

Biological target: T1, p75 neurotrophin receptor on rat embryonic motor neurons (rat, UniProt P07174 30-425)
T1 sequence (looked up): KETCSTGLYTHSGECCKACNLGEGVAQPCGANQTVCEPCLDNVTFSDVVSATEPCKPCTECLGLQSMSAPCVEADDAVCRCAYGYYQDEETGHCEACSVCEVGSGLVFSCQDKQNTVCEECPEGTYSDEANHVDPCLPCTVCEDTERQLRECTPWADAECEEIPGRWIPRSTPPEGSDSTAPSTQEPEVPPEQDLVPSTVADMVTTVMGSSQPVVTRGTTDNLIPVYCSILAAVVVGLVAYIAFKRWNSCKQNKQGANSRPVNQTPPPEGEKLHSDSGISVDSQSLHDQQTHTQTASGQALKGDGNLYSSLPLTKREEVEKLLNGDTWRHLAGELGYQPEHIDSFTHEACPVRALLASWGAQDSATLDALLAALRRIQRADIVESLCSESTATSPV
Assay: cell-based or functional assay

B1: peroxynitrite-treated NGF (mouse NGF nitrated by peroxynitrite) (ligand)
chain: SSTHPVFHMGEFSVCDSVSVWVGDKTTATDIKGKEVTVLAEVNINNSVFRQYFFETKCRASNPVESGCRGIDSKHWNSYCTTTHTFVKALTTDEKQAAWRFIRIDTACVCVLSRKATR
modifications: nitro groups on Tyr52 and Trp99 (the species identified by mass spectrometry); up to five nitro groups and methionine oxidation suggested
**Q.** With B1 as the binder, how does the “fold increase of apoptotic activity against native NGF” value read?
**A.** The value was 10000 fold.
